Reference: US20130230504A1 (CHILDREN S MEDICAL CENTER, published 2013)

Tests used:
[1] = molecular target: VEGF165 receptor (VEGF165R) (human) (UniProt O14786); test: competition with 125I-VEGF165 (5 ng/ml) on HUVEC at 2 ug/ml GST-Ex 7, gamma counting
[2] = molecular target: VEGF165 receptor (VEGF165R) (human) (UniProt O14786); test: competition with 125I-VEGF165 (5 ng/ml) on MDA-MB-231 cells (VEGF165R only), increasing GST-Ex 7+8, gamma counting
[3] = molecular target: VEGF165 receptor (VEGF165R) (human) (UniProt O14786); test: competition with 125I-VEGF165 (5 ng/ml) on HUVEC (KDR/Flk-1 and VEGF165R), increasing GST-Ex 7+8, gamma counting
[4] = molecular target: KDR/Flk-1 (human, UniProt P35968 20-1356); test: cell-based or functional assay
Sequence of KDR/Flk-1 (P35968 20-1356): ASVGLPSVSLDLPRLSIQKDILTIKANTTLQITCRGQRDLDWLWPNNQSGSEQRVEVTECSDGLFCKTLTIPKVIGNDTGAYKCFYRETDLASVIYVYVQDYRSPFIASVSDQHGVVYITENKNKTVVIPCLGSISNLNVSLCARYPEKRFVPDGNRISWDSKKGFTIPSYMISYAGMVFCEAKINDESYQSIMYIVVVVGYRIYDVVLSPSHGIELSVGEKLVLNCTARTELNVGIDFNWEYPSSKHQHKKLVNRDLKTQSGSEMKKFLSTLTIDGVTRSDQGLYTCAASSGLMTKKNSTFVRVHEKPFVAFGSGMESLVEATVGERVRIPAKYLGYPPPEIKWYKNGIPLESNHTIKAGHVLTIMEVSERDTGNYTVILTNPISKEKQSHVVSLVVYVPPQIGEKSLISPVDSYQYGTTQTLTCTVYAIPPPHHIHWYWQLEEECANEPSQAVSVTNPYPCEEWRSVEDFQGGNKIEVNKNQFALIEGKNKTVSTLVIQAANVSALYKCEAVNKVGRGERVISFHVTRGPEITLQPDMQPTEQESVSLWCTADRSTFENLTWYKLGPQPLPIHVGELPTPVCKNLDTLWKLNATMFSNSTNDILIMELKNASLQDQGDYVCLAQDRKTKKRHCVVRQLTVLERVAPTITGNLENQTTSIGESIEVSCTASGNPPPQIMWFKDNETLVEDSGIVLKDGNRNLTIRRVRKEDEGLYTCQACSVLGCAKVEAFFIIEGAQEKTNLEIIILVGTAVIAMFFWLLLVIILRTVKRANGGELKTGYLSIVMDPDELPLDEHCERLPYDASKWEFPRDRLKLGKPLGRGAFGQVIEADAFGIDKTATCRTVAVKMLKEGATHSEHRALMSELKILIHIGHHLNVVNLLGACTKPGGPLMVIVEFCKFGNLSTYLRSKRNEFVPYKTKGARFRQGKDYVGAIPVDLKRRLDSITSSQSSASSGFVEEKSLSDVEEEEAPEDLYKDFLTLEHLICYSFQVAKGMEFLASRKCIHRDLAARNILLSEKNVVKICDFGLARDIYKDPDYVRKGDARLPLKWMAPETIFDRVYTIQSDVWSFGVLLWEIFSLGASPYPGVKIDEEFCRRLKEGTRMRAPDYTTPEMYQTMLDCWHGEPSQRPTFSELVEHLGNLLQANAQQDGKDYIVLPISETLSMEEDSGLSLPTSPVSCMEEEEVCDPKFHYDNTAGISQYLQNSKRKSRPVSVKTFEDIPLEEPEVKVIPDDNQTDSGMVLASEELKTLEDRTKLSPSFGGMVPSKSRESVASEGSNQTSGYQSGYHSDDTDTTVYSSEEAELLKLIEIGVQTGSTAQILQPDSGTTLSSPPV

Sequence of VEGF165 receptor (VEGF165R) (human) (O14786 22-923): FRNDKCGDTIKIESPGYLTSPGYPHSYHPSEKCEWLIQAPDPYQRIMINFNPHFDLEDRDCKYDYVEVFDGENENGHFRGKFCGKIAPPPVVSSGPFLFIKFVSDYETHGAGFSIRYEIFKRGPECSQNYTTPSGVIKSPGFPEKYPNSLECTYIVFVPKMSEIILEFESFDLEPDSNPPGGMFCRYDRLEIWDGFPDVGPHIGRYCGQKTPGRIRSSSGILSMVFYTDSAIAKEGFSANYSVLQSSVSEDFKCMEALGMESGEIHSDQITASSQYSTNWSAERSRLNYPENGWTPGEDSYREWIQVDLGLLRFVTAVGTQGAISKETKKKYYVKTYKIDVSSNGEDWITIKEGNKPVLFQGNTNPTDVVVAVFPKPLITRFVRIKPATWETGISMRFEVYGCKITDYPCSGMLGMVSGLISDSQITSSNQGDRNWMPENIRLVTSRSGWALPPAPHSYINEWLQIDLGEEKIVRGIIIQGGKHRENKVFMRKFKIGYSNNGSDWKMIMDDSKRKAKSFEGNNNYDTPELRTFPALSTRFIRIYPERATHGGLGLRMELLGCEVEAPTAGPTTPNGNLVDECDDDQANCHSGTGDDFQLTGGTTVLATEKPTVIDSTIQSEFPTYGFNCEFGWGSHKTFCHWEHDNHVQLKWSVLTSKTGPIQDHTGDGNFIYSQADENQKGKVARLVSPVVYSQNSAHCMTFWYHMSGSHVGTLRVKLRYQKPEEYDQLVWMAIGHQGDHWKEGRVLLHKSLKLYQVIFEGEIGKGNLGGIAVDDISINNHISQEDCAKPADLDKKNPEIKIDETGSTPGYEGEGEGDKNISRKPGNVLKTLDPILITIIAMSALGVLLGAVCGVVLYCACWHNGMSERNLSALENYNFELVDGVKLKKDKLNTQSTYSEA

**Q.** For “GST-Ex 7 fusion protein (GST fused to the 44 amino acids encoded by VEGF exon 7 plus the first cysteine of exon 8) (from UniProt P08515 1-218)”, which percent inhibition of 125I-VEGF165 binding [1] is on record?
**A.** The percent inhibition of 125I-VEGF165 binding was 80%.

**Q.** What does the source list for “GST-Ex 7+8 fusion protein (GST fused to the VEGF165 exons 7- and 8-encoded peptide) (from UniProt P15692 187-191)”?
**A.** percent inhibition of 125I-VEGF165 binding [2]: 97 to 98%; percent inhibition of 125I-VEGF165 binding [3]: 85 to 95%

B1: Human recombinant VEGF121 (ligand, UniProt P15692-9 27-147, looked up)
chain: APMAEGGGQNHHEVVKFMDVYQRSYCHPIETLVDIFQEYPDEIEYIFKPSCVPLMRCGGCCNDEGLECVPTEESNITMQIMRIKPHQGQHIGEMSFLQHNKCECRPKKDRARQEKCDKPRR
modifications: radioiodinated (125I, IODO-BEADS) in the cross-linking assays
**Q.** How did the “fold decrease in VEGF121-mediated HUVEC proliferation with 15 ug/ml GST-Ex 7+8” value [4] turn out when B1 was run?
**A.** Its value is ~2 fold.
